Reference: the supplement of paper PMC9170038

Test system: MS2 coat protein
Assay: apparent KD of MS2 coat protein; designed switch direction (-1 OFF switch, 1 ON switch): -1; higher = weaker reporter binding
How it was run: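 An oligonucleotide input, 200 uM small-molecule ligand, or no input was present during titration of SNAP-549-labelled MS2 coat protein, which was doubled from 0.7 or 1.5 nM to 3 µM. Designed RNA switches had been transcribed on Illumina chips by stalled E. coli RNA polymerase. Apparent KD per design is the median over clusters of curves fitted to normalised cluster fluorescence.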

[1] = Eterna round: R95, input ligand: FMN 200 uM
[2] = Eterna round: R95, input ligand: microRNA oligo, concentration not stated
[3] = Eterna round: R95, input ligand: none
[4] = input ligand: microRNA oligo, concentration not stated

Sequence | apparent KD of MS2 coat protein [1] [nM] | apparent KD of MS2 coat protein [2] [nM] | apparent KD of MS2 coat protein [3] [nM] | apparent KD of MS2 coat protein (input ligand: FMN 200 uM) [nM] | apparent KD of MS2 coat protein (input ligand: none) [nM] | apparent KD of MS2 coat protein [4] [nM]
AGGGAUAAAGGAUAUACAUGAGGAUCACCCAUGUUGAGGAAGGUUAGAUGAGGAGUAAGUAGAAGGUUAGACGA [JR_Exclu3_Sub088] (puzzle: Exclusion 3) | 45.7 | 40.7 | 61.3 | – | – | –
GACUGUCGAGAGGAUAUCUUUCCCAAGCGGGUCAGAGAAGGCUUGACAUGAGGAUCACCCAUGUUGAUUGCUAG [EX6 C.23] (Eterna round: R97, puzzle: Exclusion 6) | – | – | – | 389 | 140 | –
GCGUGGACUGAGGAUAUCCGAACGGUGCACGGAGGAGAAGGUAGGACAUGAGGAUCACCCAUGUGAACCUAGAU [Ceinormaat] (Eterna round: R97, puzzle: Exclusion 6) | – | – | – | 20.6 | 19.8 | –
CCUCUUGGGCAAGGAUAUCCUGCGCGGUUCCGGCUCGUGUCUGUCACAUGAGGAUCACCCAUGUGGGAGAAGGUGCCUGCGGUC [Design 79] (Eterna round: R96, puzzle: Exclusion NG 2) | – | – | – | 16.3 | 16.5 | 11.8
UAUAUAUAGUAAGGAUAUGUAUAUAUUGUAUAAACAGAAGGUACUGACAUGAGGAUCACCCAUGUUUUAGUGUGGGCAUGUAGA [JMF's solution 61] (Eterna round: R96, puzzle: Exclusion NG 1) | – | – | – | – | – | 57.5
CGGCUACGAUGAGGAUAUACGCACAUGAGGAUCACCCAUGUAAAUCACGGGUAAAGAUCGUCAUCGUAGAAGGCAUAAGGGCCC [Ormale] (Eterna round: R96, puzzle: Exclusion NG 2) | – | – | – | 33 | 30.1 | 23.9
UGAUCUUUUGUUAGGAUAUGCUGUUUUUUUUUUCAGCAGAAGGGACAUGAGGAUCACCCAUGUUUUGUCAUAAA [Magic-06] (Eterna round: R96, puzzle: Brourd's mod of Exclusion 4) | – | – | – | 45 | 33 | 24.1
UAGAAUCGAGGAUAUACAUGAGGAUCACCCAUGUGUUGCCGCAUGAUAUGAUCGUCAGGUAGAAGGCGAUUAUA [Exclusion 3 - Mod of Jieux's Gilly Gone Silly 23 v.6] (puzzle: Exclusion 3) | 37.6 | 83.4 | 82.9 | – | – | –
GAUAAUGAAGGAUAUACAGGCGGUCCGUGACUAGUCUUCAUACAUGAGGAUCACCCAUGUAGAAGGUCAAUGUU [Eternabot (L1) Solution 64] (Eterna round: R97, puzzle: Exclusion 2) | – | – | – | 23.3 | 14.4 | –
UAUAUAUAGUAAGGAUAUGUAUUUAUUUUAUUAACAGAAGGUACUGACAUGAGGAUCACCCAUGUUUUAGUGUGGGCAUGUAGA [JMF's solution 25] (Eterna round: R96, puzzle: Exclusion NG 1) | – | – | – | – | – | 77.7
AUUAAACAUGUAGGAUAUGCGUAGCAAAGCUAUGCAGAAGGACAUGAGGAUCACCCAUGUAAAAGCGUCUGAGUACAGAUGCAA [Mat - Exclusion NG 1 - Mod of JL - D88] (Eterna round: R96, puzzle: Exclusion NG 1) | – | – | – | 936 | 47.6 | 40.5
UCUCGCGUCGAGGAUAUAUCGUGUAAGUGCGCGAUAGAAGGCGACACAUGAGGAUCACCCAUGUAGGGCCGAAC [Eternabot (Original) Solution 14] (Eterna round: R97, puzzle: Exclusion 6) | – | – | – | 149 | 23.2 | –
AGCCACAGAGGAUAUACAUACAUCCAGUAGUAGAGUCUACUACAUGAGGAUCACCCAUGUAGAAGGCUGUGGCA [Omei Ex2 BD B16] (Eterna round: R97, puzzle: Exclusion 2) | – | – | – | 419 | 37.1 | –
AUAAAGCAAGGAUAUACAUGAGGAUCACCCAUGUAUGAAAGUUGGCCGCGGUUUAGAUGUAGAAGGUGCAAGGG [EX3 B.8] (Eterna round: R97, puzzle: Exclusion 3) | – | – | – | 27.6 | 28.1 | –
GGUGGACAUGAGGAUCACCCAUGUGAGGAUAUCGGCUAUCUACUCGCUGUCGGUUGCUCGAGAAGGCACAUUGU [Exclusion 1 V93] (puzzle: Exclusion 1) | – | 151 | – | – | – | –
GGUCAGACGGUAGGAUAUCCAUAUCGAGUGACUCUUUCAUAACAUGAGGAUCACCCAUGUCGGUGGGAGAAGGGCCGUACGGCG [salish99_ExNG02_R04_005] (Eterna round: R96, puzzle: Exclusion NG 2) | – | – | – | 61.5 | 42.7 | 29.6
UCUUUGUUUGUGAGGAUAUCGGUGGGAUGGGUUGUCGAGAAGGCACAUGAGGAUCACCCAUGUGAGGGACAGCA [JR_BMEx4_Sub028] (Eterna round: R97, puzzle: Brourd's mod of Exclusion 4) | – | – | – | 16.6 | 16.2 | –

Sequence | apparent KD of MS2 coat protein [1] [nM] | apparent KD of MS2 coat protein [2] [nM] | apparent KD of MS2 coat protein [3] [nM] | apparent KD of MS2 coat protein (input ligand: FMN 200 uM) [nM] | apparent KD of MS2 coat protein (input ligand: none) [nM] | apparent KD of MS2 coat protein [4] [nM]
UUCCUCACUUCUUUGUCUCACAUGAGGAUCACCCAUGUAAUAUAGGAUAUGCAUAGUAUUUCUAUGCAGAAGGAUAUUAGUUUU [JR_ExcNG3_Sub087] (Eterna round: R96, puzzle: Exclusion NG 3) | – | – | – | 131 | 34.7 | 27.3
AGAGAGUCAGGAUAUGACGAAGAGAACAUGAGGAUCACCCAUGUUGCUUCGUUUUUAUCGUCAGAAGGGACGAACU [JR_Ex5_Sub088] (Eterna round: R97, puzzle: Exclusion 5) | – | – | – | 13.8 | 13.9 | –
CAGUACUGAGGAUAUACAUGAGGAUCACCCAUGUCCCAAAAGUAGGAUACUACUAUUAGUAGAAGGCAGUACUG [Fiskers Ex 3 828 mod 25] (Eterna round: R96, puzzle: Exclusion 3) | – | – | – | 498 | 46.1 | 43.2
UGUCAGAUGGUAGGAUAUCCGUAUCGCGUGUCCCUUUCCUAACAUGAGGAUCACCCAUGUCGGUGGGAGAAGGGCCGUAUGGUG [salish99_ExNG02_R04_037] (Eterna round: R96, puzzle: Exclusion NG 2) | – | – | – | 12.9 | 15.3 | 10.6
AUUAAUUGUCAGAUGGGUGACAUGAGGAUCACCCAUGUCACAAGCUUUUUGUUCGUCUUAUAAUUAACCCAUCUGAC [Stov1/11-B2] (Eterna round: R97, puzzle: Sensor, turn-off variant 1) | – | – | – | 13.8 | 14.4 | –
UUUUUCGAACAAGCUACGUACAUGAGGAUCACCCAUGUCGGUAGAUUUGAGUAGGUUUGGAUGGAAGCUCGUCUUAU [JR_SV3TOV1_Sub085] (puzzle: Sensor v3, turn-off variant 1) | 19.4 | 28.2 | 19.5 | – | – | –
GCAGAAUGAGUUAGGAUAUGAUGAUUUUUCGGAAAUCAGAAGGAACUUGAGGAUCACCCAAGUAAAGAUAGGGU [JR_BMEx4_Sub064] (Eterna round: R97, puzzle: Brourd's mod of Exclusion 4) | – | – | – | 358 | 236 | –
CCGAGGUAGCGGUCCUAUGACAUGAGGAUCACCCAUGUACCUCGCUACGAGCUUUUUGCUCGUCAUAUAAUUCUCGG [Mat - Sensor v3 - turn-off var 1 - JL Mod - D30] (puzzle: Sensor v3, turn-off variant 1) | 45.4 | 57.9 | 66.3 | – | – | –
UUUAAGUCAGGAUAUACAUGAGGAUCACCCAUGUAAAAUUUUAAUUUAAUUUGAAGGUGUAGAAGGGACAAAUU [Ex3 #37] (Eterna round: R97, puzzle: Exclusion 3) | – | – | – | 23 | 24.6 | –
AGUUAGAUAGGAUAUGCCCGAGAUAACAUGAGGAUCACCCAUGUGACCGAGUCUAUUCUAGCAGAAGGGUUUAUGA [Mod of ViennaUCT 20 - Jieux - Exclusion 5] (Eterna round: R97, puzzle: Exclusion 5) | – | – | – | 17.8 | 18.3 | –
AUACCAUGCCGCCUAAUAGCUUUUUGCUCGUCUUAUAAAACAUGAGGAUCACCCAUGUAAAACUCGUGGCGUGACCC [Leorbixe] (puzzle: Sensor v3, turn-off variant 2) | 77 | 19.9 | 60.8 | – | – | –
CGGAUGUCAGGAUAUCGUGCAUACAACGAAAGUUCUAUGUGCGAGAAGGGACAUGAGGAUCACCCAUGUUUACG [Omei Ex4 A11] (Eterna round: R97, puzzle: Exclusion 4) | – | – | – | 206 | 34.9 | –
CUUUUGUGAGGAUAUUAGUAGUUUAUAAUUAAAAUUAUUACUGAGAAGGCACAUGAGGAUCACCCAUGUACCAC [JR_Ex4_Sub030] (Eterna round: R97, puzzle: Exclusion 4) | – | – | – | 92.8 | 21.8 | –
AGUUCACAUGAGGAUCACCCAUGUGAGGAUAUGGUUUCGCUGGCCGUAGCCAGUGGAACCAGAAGGCGCGUGAU [Mat - Exclusion 1 - JL Mod - D15] (Eterna round: R97, puzzle: Exclusion 1) | – | – | – | 52.1 | 51 | –
UAUUAGCAAGCAACUGGGUACAUGAGGAUCACCCAUGUGCUCGUCUUAUAAGGUACUGUUACGAAAGUCACGGUACC [mod--Eli12] (Eterna round: R97, puzzle: Sensor, turn-off variant 1) | – | – | – | 17.3 | 15.9 | –
CAUACACAUGAGGAUCACCCAUGUGAGGAUAUGCGUACGUUGUCCGUAGGCGACGUGCGCAGAAGGCGCAAGGU [JL-ex1-3.17 Eli mod] (puzzle: Exclusion 1) | – | 50.4 | – | – | – | –
